Data: the Human Domainome abundance scans (Beltran et al. 2025)
± gives the uncertainty stated by the source.

B1: Zinc finger homeobox protein 4, residues 2086 to 2141; numbered along this chain, Q86UP3 (parent)
chain: RPRTRITDDQLKILRAYFDINNSPSEEQIQEMAEKSGLSQKVIKHWFRNTLFKERQ

Variants of: B1
Experiment: abundance fitness (aPCA) (normalised: wild type 0, dead -1); higher = more abundant; growth selection in yeast, the domain comes from the species named
Conditions: Homo sapiens

RPRTRITDDQLKILRAYFDINNSPSEEQIQEMAEKSGLYQKVIKHWFRNTLFKERQ and RPRTRITDDQLKILRAYFDINNSPSEEQIQEMAEKSGLMQKVIKHWFRNTLFKERQ are within error of each other in abundance fitness: -0.14 ± 0.48 for the first, 0.217 ± 0.34 for the second.

RPRTRITDDQLKILRAYFDINNSPSEEQIQEMAEKSGLGQKVIKHWFRNTLFKERQ and RPRTRITDDQLKILRAYFDINNSPSEEQIQEMAEKSGLEQKVIKHWFRNTLFKERQ are within error of each other in abundance fitness: -0.227 ± 0.18 for the first, 0.127 ± 0.21 for the second.

RPRTRITDDQLKILRAYFDINNSPSEEQIQEMAEKSGLAQKVIKHWFRNTLFKERQ and RPRTRITDDQLKILRAYFDINNSPSEEQIQEMAEKSGLTQKVIKHWFRNTLFKERQ are within error of each other in abundance fitness: -0.163 ± 0.25 for the first, -0.135 ± 0.31 for the second.

Going from RPRTRITDDQLKILRAYFDINNSPSEEQIQEMAEKSGLRQKVIKHWFRNTLFKERQ to RPRTRITDDQLKILRAYFDINNSPSEEQIQEMAEKSGLCQKVIKHWFRNTLFKERQ, the abundance fitness falls from 0.007 ± 0.21 to -0.395 ± 0.17.

Going from RPRTRITDDQLKILRAYFDINNSPSEEQIQEMAEKSGLWQKVIKHWFRNTLFKERQ to RPRTRITDDQLKILRAYFDINNSPSEEQIQEMAEKSGLKQKVIKHWFRNTLFKERQ, the abundance fitness rises from -1.16 ± 0.33 to 0.081 ± 0.26.

RPRTRITDDQLKILRAYFDINNSPSEEQIQEMAEKSGLPQKVIKHWFRNTLFKERQ and RPRTRITDDQLKILRAYFDINNSPSEEQIQEMAEKSGLFQKVIKHWFRNTLFKERQ are within error of each other in abundance fitness: -0.115 ± 0.34 for the first, -0.323 ± 0.28 for the second.

RPRTRITDDQLKILRAYFDINNSPSEEQIQEMAEKSGLLQKVIKHWFRNTLFKERQ and RPRTRITDDQLKILRAYFDINNSPSEEQIQEMAEKSGLSQKVQKHWFRNTLFKERQ are within error of each other in abundance fitness: -0.767 ± 0.25 for the first, -1.02 ± 0.14 for the second.

First: RPRTRITDDQLKILRAYFDINNSPSEEQIQEMAEKSGLSQKVKKHWFRNTLFKERQ
Second: RPRTRITDDQLKILRAYFDINNSPSEEQIQEMAEKSGLSQKVVKHWFRNTLFKERQ
The abundance fitness of the first is lower: -1.19 ± 0.19 for the first, -0.073 ± 0.068 for the second.

Going from RPRTRITDDQLKILRAYFDINNSPSEEQIQEMAEKSGLSQKVAKHWFRNTLFKERQ to RPRTRITDDQLKILRAYFDINNSPSEEQIQEMAEKSGLSQKVEKHWFRNTLFKERQ, the abundance fitness falls from -0.488 ± 0.075 to -0.946 ± 0.12.

RPRTRITDDQLKILRAYFDINNSPSEEQIQEMAEKSGLSQKVFKHWFRNTLFKERQ and RPRTRITDDQLKILRAYFDINNSPSEEQIQEMAEKSGLSQKVCKHWFRNTLFKERQ are within error of each other in abundance fitness: -0.607 ± 0.14 for the first, -0.367 ± 0.17 for the second.

RPRTRITDDQLKILRAYFDINNSPSEEQIQEMAEKSGLSQKVPKHWFRNTLFKERQ and RPRTRITDDQLKILRAYFDINNSPSEEQIQEMAEKSGLSQKVGKHWFRNTLFKERQ are within error of each other in abundance fitness: -1.09 ± 0.14 for the first, -1.24 ± 0.099 for the second.

RPRTRITDDQLKILRAYFDINNSPSEEQIQEMAEKSGLSQKVDKHWFRNTLFKERQ and RPRTRITDDQLKILRAYFDINNSPSEEQIQEMAEKSGLSQKVWKHWFRNTLFKERQ are within error of each other in abundance fitness: -0.876 ± 0.17 for the first, -0.928 ± 0.13 for the second.

RPRTRITDDQLKILRAYFDINNSPSEEQIQEMAEKSGLSQKVNKHWFRNTLFKERQ and RPRTRITDDQLKILRAYFDINNSPSEEQIQEMAEKSGLSQKVSKHWFRNTLFKERQ are within error of each other in abundance fitness: -1.02 ± 0.21 for the first, -0.994 ± 0.11 for the second.

Going from RPRTRITDDQLKILRAYFDINNSPSEEQIQEMAEKSGLSQKVLKHWFRNTLFKERQ to RPRTRITDDQLKILRAYFDINNSPSEEQIQEMAEKSGLSQKVMKHWFRNTLFKERQ, the abundance fitness falls from -0.195 ± 0.076 to -0.541 ± 0.097.

RPRTRITDDQLKILRAYFDINNSPSEEQIQEMAEKSGLSQKVHKHWFRNTLFKERQ and RPRTRITDDQLKILRAYFDINNSPSEEQIQEMAEKSGNSQKVIKHWFRNTLFKERQ are within error of each other in abundance fitness: -1.05 ± 0.16 for the first, -0.769 ± 0.15 for the second.

Compared with RPRTRITDDQLKILRAYFDINNSPSEEQIQEMAEKSGRSQKVIKHWFRNTLFKERQ, RPRTRITDDQLKILRAYFDINNSPSEEQIQEMAEKSGMSQKVIKHWFRNTLFKERQ is higher in abundance fitness: -0.746 ± 0.07 for the first, -0.011 ± 0.11 for the second.

RPRTRITDDQLKILRAYFDINNSPSEEQIQEMAEKSGSSQKVIKHWFRNTLFKERQ and RPRTRITDDQLKILRAYFDINNSPSEEQIQEMAEKSGYSQKVIKHWFRNTLFKERQ are within error of each other in abundance fitness: -0.545 ± 0.081 for the first, -0.419 ± 0.14 for the second.

Compared with RPRTRITDDQLKILRAYFDINNSPSEEQIQEMAEKSGTSQKVIKHWFRNTLFKERQ, RPRTRITDDQLKILRAYFDINNSPSEEQIQEMAEKSGPSQKVIKHWFRNTLFKERQ is lower in abundance fitness: -0.279 ± 0.12 for the first, -0.982 ± 0.15 for the second.

First: RPRTRITDDQLKILRAYFDINNSPSEEQIQEMAEKSGVSQKVIKHWFRNTLFKERQ
Second: RPRTRITDDQLKILRAYFDINNSPSEEQIQEMAEKSGQSQKVIKHWFRNTLFKERQ
The abundance fitness of the first is higher: -0.117 ± 0.069 for the first, -0.349 ± 0.11 for the second.

Going from RPRTRITDDQLKILRAYFDINNSPSEEQIQEMAEKSGWSQKVIKHWFRNTLFKERQ to RPRTRITDDQLKILRAYFDINNSPSEEQIQEMAEKSGLSKKVIKHWFRNTLFKERQ, the abundance fitness rises from -0.666 ± 0.083 to 0.082 ± 0.12.

RPRTRITDDQLKILRAYFDINNSPSEEQIQEMAEKSGLSYKVIKHWFRNTLFKERQ and RPRTRITDDQLKILRAYFDINNSPSEEQIQEMAEKSGLSPKVIKHWFRNTLFKERQ are within error of each other in abundance fitness: -0.157 ± 0.13 for the first, -0.114 ± 0.095 for the second.

RPRTRITDDQLKILRAYFDINNSPSEEQIQEMAEKSGLSNKVIKHWFRNTLFKERQ and RPRTRITDDQLKILRAYFDINNSPSEEQIQEMAEKSGLSRKVIKHWFRNTLFKERQ are within error of each other in abundance fitness: -0.217 ± 0.19 for the first, -0.062 ± 0.068 for the second.

RPRTRITDDQLKILRAYFDINNSPSEEQIQEMAEKSGLSSKVIKHWFRNTLFKERQ and RPRTRITDDQLKILRAYFDINNSPSEEQIQEMAEKSGLSAKVIKHWFRNTLFKERQ are within error of each other in abundance fitness: -0.115 ± 0.082 for the first, -0.14 ± 0.079 for the second.

With RPRTRITDDQLKILRAYFDINNSPSEEQIQEMAEKSGLSFKVIKHWFRNTLFKERQ the abundance fitness was 0.038 ± 0.16.
